Test results published in doi:10.1101/2025.08.25.672096 (bioRxiv, 2025).
Blank lines part the entries; values can stand above or below the binder they belong to.

Molecular target: T1, GST::KIF14(901-1648) (UniProt Q15058 901-1648)
T1 sequence (looked up): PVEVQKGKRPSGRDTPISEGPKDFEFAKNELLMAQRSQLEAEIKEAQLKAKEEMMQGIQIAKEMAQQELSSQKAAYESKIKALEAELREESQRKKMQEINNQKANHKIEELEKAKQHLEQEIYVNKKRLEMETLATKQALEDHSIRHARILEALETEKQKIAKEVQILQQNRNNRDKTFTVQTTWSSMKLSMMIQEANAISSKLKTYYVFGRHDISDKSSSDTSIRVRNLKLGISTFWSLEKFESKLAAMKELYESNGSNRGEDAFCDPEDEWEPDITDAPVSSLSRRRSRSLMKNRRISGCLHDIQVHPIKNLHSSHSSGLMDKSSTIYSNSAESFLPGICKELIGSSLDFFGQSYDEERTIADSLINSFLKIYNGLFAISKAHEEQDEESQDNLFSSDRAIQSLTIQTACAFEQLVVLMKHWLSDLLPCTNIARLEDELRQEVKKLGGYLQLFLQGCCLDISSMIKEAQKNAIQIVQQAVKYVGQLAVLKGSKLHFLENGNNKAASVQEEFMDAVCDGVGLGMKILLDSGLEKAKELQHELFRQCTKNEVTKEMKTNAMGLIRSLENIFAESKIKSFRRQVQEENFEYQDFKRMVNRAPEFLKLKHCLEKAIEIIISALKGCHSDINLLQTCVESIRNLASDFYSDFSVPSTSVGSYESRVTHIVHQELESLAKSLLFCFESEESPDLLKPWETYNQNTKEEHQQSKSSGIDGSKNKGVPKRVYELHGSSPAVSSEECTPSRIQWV
Assay: pull-down

binding result: binds
B1: MBP::CIT-K(420-585) (domain or fragment, human, UniProt O14578-4 420-585, looked up)
chain: SYSKALGILGRSESVVSGLDSPAKTSSMEKKLLIKSKELQDSQDKCHKMEQEMTRLHRRVSEVEAVLSQKEVELKASETQRSLLEQDLATYITECSSLKRSLEQARMEVSQEDDKALQLLHDIREQSRKLQEIKEQEYQAQVEEMRLMMNQLEEDLVSARRRSDLY

binding result: binds
B2: MBP::CIT-K(420-585) phosphorylated in vitro by CDK1-cyclin B (pS440) (domain or fragment, human, UniProt O14578-4 420-585, looked up)
chain: B1 chain
modifications: phosphoserine at 440 (detected with the CIT-K pS440 antibody)
